Patent US20050222387A1, “Smac-peptides as therapeutics against cancer and autoimmune diseases” (Deutsches Krebsforschungzentrum Stiftung Des Oeffentlichen …, priority 2002, published 2005)

Assay: Neurotoxicity by compound neurological score in the glioblastoma model
Assay type: in vivo, athymic mice
Conditions: TRAIL alone, local administration
Procedure: Animal studies. 5×10^4 U87MG human glioblastoma cells were stereotactically implanted into the right striatum of athymic mice (CD1 nu/nu, Charles River, Sulzfeld, Germany). At day 7 or at day 7 and day 9, mice were locally treated with Apo2L/TRAIL (2 μg/4 μl buffer) and/or Smac (1 mg/4 μl buffer) or buffer only. Tumor cell volumes were measured at day 21 or 35 after tumor cell implantation as previously described. Neurological symptoms (alertness, behaviour, weight loss, focal neurological deficits) were evaluated daily and a compound score of all categories was formed (++: severe deficits, +: deficits, −: no relevant deficits). Statistical significance was assessed using ANOVA.

With “TRAIL: TNF-related apoptosis inducing ligand, death receptor ligand; recombinant human TRAIL (PeproTech)” the “mice that developed neurological deficits” value was 2 of 6.
